# In paper PMC10709299:
# Molecular target: G6PD Meyer (Arg219Gly) (human) (UniProt P11413)
# Assay: SEC; Superdex 200 Increase 10/300, 100 µg recombinant protein loaded, 50 mM Tris-HCl pH 7.5, 150 mM NaCl, 0.5 ml/min; column calibrated with Gel Filtration Standard (Biorad)
substance,measurement,value
G6PD Meyer (Arg219Gly) (from UniProt P11413-3 1-545) (enzyme),stoichiometry N,2
